Measurements as given in article PMC3482105.

Legend:
GCaMP2-LIA = test: crystal structure
GCaMP5H = test: crystal structure

## GCaMP2-LIA
GCaMP2-LIA
  stoichiometry N: 2

## GCaMP5H
GCaMP5H
  stoichiometry N: 2
